Data published in US11078465B2, “Alcohol dehydrogenase mutant and application thereof in synthesis of diaryl chiral alcohols” (Jiangnan University, priority 2018, dated 2021).

Tests used:
Assay type in all cases: biochemical
[1] = Stereoselectivity on different substrates; conditions: configuration in brackets
Protocol: (§1) In an embodiment of the present disclosure, a chromatographic analysis method is as follows: 100 μL of reactant liquid is taken, 500 μL of ethyl acetate is added, shaking is performed for 1-2 min, centrifugation is performed at 12,000 rpm for 2-5 min, supernatant liquid is taken into a centrifuge tube, after an organic phase naturally volatilizes completely, 500 μL of chromatographically pure ethanol is added, and chiral liquid chromatography and gas chromatography are performed to analyze the transformation rate and the ee value.
(§2) Method for determining optical purity ee:
(§3) As: molar concentration of (S)-CPMA obtained by liquid chromatography; and AR: molar concentration of (R)-CPMA obtained by liquid chromatography.
(§4) The reduction on prochiral carbonyl compounds by the alcohol dehydrogenase mutants obtained in Example 3 was studied. The pro-chiral carbonyl compounds include (4-chlorophenyl)-(pyridin-2-yl)-methanone (CPMK), phenyl-(pyridin-2-yl)-methanone, (4-chlorophenyl)-(phenyl)-methanone, (4-bromophenyl)(phenyl)methanone, (4-fluorophenyl)(phenyl)methanone, (4-methoxyphenyl)-(phenyl)-methanone, (4-nitrophenyl)(phenyl)methanone, 1-(pyridin-2-yl)ethanone, acetophenone, 4′-Chloroacetophenone, 4-chlorophenacyl chloride, ethyl 2-oxo-4-phenylbutanoate (OPBE), ethyl 4-chloro-3-oxobutanoate, and methyl 2-oxo-2-phenylacetate.

[2] = Stereoselectivity on different substrates; conditions: for Stereoselectivity (ee): configuration in brackets
Protocol: as §1, §2, §3, §4
All the products above were recrystallized from ethyl acetate and gave more than 99.9% optical purity.

[3] = Asymmetric reduction in 20 mL biocatalytic system, conversion
Protocol: as §1
The pure (R)-CPMA were recrystallized from ethyl acetate at 4° C. and gave 99.9% optical purity. […] Besides, the conversion cannot reach 100% with 24 h in the asymmetric reduction of (4-bromophenyl)-(phenyl)-methanone and p-nitrobenzophenone due to the low enzyme activity.

[4] = Substrate specificity, specific activity
Protocol: Adopting a total reaction system of 200 μL, including: 1.0 mM NADPH, 1.0 mM substrate CPMK and sodium phosphate buffer (PBS, 100 mM, pH 7.0), fully and evenly mixing, maintaining at 30° C. for 2 min, adding an appropriate amount of enzyme solution, and detecting the change in light absorption at 340 nm.
The enzyme activity was calculated by the following formula: Enzyme activity (U)=EW×V×10^3/(6220×I);
in the formula, EW is the change in absorbance at 340 nm in 1 min; V is the volume of a reaction solution in mL; 6220 is the molar extinction coefficient of NADPH in L/mol·cm); and 1 is the optical path distance in cm. One activity unit (U) corresponds to the amount of enzyme required to catalyze the oxidation of 1 μmol NADPH per minute under the above conditions.
as §4

[5] = Kinetic analysis of alcohol dehydrogenase and mutants (NADPH oxidation, 340 nm, double reciprocal curve); conditions: substrate CPMK
Summary of the method: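 His-tagged recombinant KpADH (wild type or mutant) purified by nickel affinity, desalted into Tris-HCl pH 7.0. Activity measured at 30° C in 100 mM sodium phosphate pH 7.0 with 1.0 mM NADPH and 1.0 mM CPMK by 340 nm NADPH absorbance decrease; kinetic parameters from double reciprocal plots over varied substrate and coenzyme concentrations.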

[6] = Stereoselectivity (ee) of CPMK reduction, chiral liquid chromatography
Summary of the method: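 ee is calculated from the (S)-CPMA and (R)-CPMA molar concentrations measured by chiral liquid chromatography; conversion also by GC. Samples are ethyl acetate extracts of the reaction, dried and redissolved in ethanol.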

B1: E214I/S237A: isoleucine for glutamate at position 214 and alanine for serine at position 237 of SEQ ID No. 2 (protein)
chain: MSVLISGASGYIAKHIVRVLLEQNYKVIGTVRSQDKADKLLKQYNNPNLSYEIVPEIANLDAFDDIFKKHGKEIKYVIHAASPVNFGAKDLEKDLVIPAINGTKNMFEAIKKYAPDTVERVVMTASYASIMTPHRQNDPTLTLDEETWNPVTEENAYENVFTAYCASKTFAEKEAWKFVKENSDAVKFKLTTIHPSFVFGPQNFDEDVTKKLNITCEIINGLLHAPFDTKVEKTHFAQFIDVRDVAKTHVLGFQKDELINQRLLLCNGAFSQQDIVNVFNEDFPELKGQFPPEDKDTDLNKGVTGCKIDNEKTKKLLAFEFTPFHKTIHDTVYQILHKEGRV
modifications: Protein translated from synthetic DNA
- Stereoselectivity (ee) ([1]; substrate [drawing 13]): 36.8 (R)
- Stereoselectivity (ee) ([1]; substrate [drawing 14], likely CPMK (values partly match Table 4)): 98.4 (R)
- Stereoselectivity (ee) ([1]; substrate [drawing 15]): 52.6 (S)
- Stereoselectivity (ee) ([1]; substrate [drawing 18]): 81.8 (S)
- ee ([2]; substrate 4-chloroacetophenone, (R)): 99.4%
- Stereoselectivity (ee) ([2]; substrate [drawing 10], acetophenone): 9.69 (R)
- Stereoselectivity (ee) ([2]; substrate [drawing 11], 4-chloroacetophenone): 99.4 (R)
- Stereoselectivity (ee) ([2]; substrate [drawing 12], 4-chlorobenzoyl chloride): 76.4 (R)
- Stereoselectivity (ee) ([2]; substrate [drawing 16], (4-bromophenyl)-(phenyl)-methanone): 93.4 (S)
- Stereoselectivity (ee) ([2]; substrate [drawing 17], p-nitrobenzophenone): 86.5 (S)
- Conversion rate ([3]; 4-chloroacetophenone 100 mM, 1 h): 59%
- Conversion rate ([3]; 4-chloroacetophenone 100 mM, 2 h): 72%
- Conversion rate ([3]; 4-chloroacetophenone 100 mM, 3 h): 89%
- Conversion rate ([3]; 4-chloroacetophenone 100 mM, 4 h): 85%
- Conversion rate ([3]; 4-chloroacetophenone 100 mM, 6 h): 97.6%
- Conversion rate ([3]; 4-chloroacetophenone 100 mM, 8 h): 99.8%
- Conversion rate ([3]; 4-chloroacetophenone 100 mM, 12 h): >99.9%
- Conversion rate ([3]; 4-chloroacetophenone 100 mM, 24 h): >99.9%
- Conversion rate ([3]; 4-chloroacetophenone 200 mM, 1 h): 40%
- Conversion rate ([3]; 4-chloroacetophenone 200 mM, 2 h): 52.4%
- Conversion rate ([3]; 4-chloroacetophenone 200 mM, 3 h): 69.5%
- Conversion rate ([3]; 4-chloroacetophenone 200 mM, 4 h): 76.9%
- Conversion rate ([3]; 4-chloroacetophenone 200 mM, 6 h): 88.6%
- Conversion rate ([3]; 4-chloroacetophenone 200 mM, 8 h): 95.6%
- Conversion rate ([3]; 4-chloroacetophenone 200 mM, 12 h): 99.2%
- Conversion rate ([3]; 4-chloroacetophenone 200 mM, 24 h): 99.7%
- Conversion rate ([3]; 4-chloroacetophenone 500 mM, 1 h): 28.5%
- Conversion rate ([3]; 4-chloroacetophenone 500 mM, 2 h): 38.9%
- Conversion rate ([3]; 4-chloroacetophenone 500 mM, 3 h): 50.0%
- Conversion rate ([3]; 4-chloroacetophenone 500 mM, 4 h): 64.2%
- Conversion rate ([3]; 4-chloroacetophenone 500 mM, 6 h): 80.9%
- Conversion rate ([3]; 4-chloroacetophenone 500 mM, 8 h): 90.2%
- Conversion rate ([3]; 4-chloroacetophenone 500 mM, 12 h): 94.9%
- Conversion rate ([3]; 4-chloroacetophenone 500 mM, 24 h): 99.2%
- specific activity ([4]; substrate [drawing 1]): 0.09 U/mg
- specific activity ([4]; substrate [drawing 2]): 0.08 U/mg
- specific activity ([4]; substrate [drawing 3]): 1.42 U/mg
- specific activity ([4]; substrate [drawing 4]): 2.94 U/mg
- specific activity ([4]; substrate [drawing 5]): 12.38 U/mg
- specific activity ([4]; substrate [drawing 6], 4-chlorophenacyl chloride): 30.09 U/mg
- specific activity ([4]; substrate [drawing 7]): 21.73 U/mg
- specific activity ([4]; substrate [drawing 8]): 30.28 U/mg
- specific activity ([4]; substrate [drawing 9], ethyl 4-chloro-3-oxobutanoate): 5.58 U/mg
- Kcat [5]: 12.06 ± 0.52 s⁻¹
- Km [5]: 470 ± 50 µM
- Vmax [5]: 18.09 ± 0.78 µM/min/mg
- ee value, (R)-CPMA ([6]; R configuration product, listed as E2141/S237A): 98.3%
- e.e. ([6]; product configuration in brackets): 98.3 (R)
